{
  "source": "the supplement of paper PMC9112550",
  "about": "“Optimization of the antimicrobial peptide Bac7 by deep mutational scanning” (BMC Biology, 2022);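 further: peptides expressed intracellularly from a pBAD plasmid library in pooled LB shake-flask culture, induced with 0.3% L-arabinose, DNA abundance read by NGS, three biological replicates, DESeq2 with apeglm shrinkage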",
  "data": [
    {"tested_on": "Escherichia coli TOP10", "experiment": "shrunken log2 fold change of peptide-encoding DNA abundance (4.5 h post-induction vs induction); higher = less antimicrobial activity (less host growth inhibition)", "conditions": "time post-induction: 4.5 h; library: site-saturation at positions 5, 18, 19, 20", "values": [
      {"sequence": "RRIRRRPPRLPRPRPRPGNKPRP", "shrunken log2 fold change": -0.176},
      {"sequence": "RRIRTRPPRLPRPRPRPGNIPRP", "shrunken log2 fold change": -0.0496},
      {"sequence": "RRIRHRPPRLPRPRPRPATAPRP", "shrunken log2 fold change": -0.0944},
      {"sequence": "RRIRDRPPRLPRPRPRPWKNPRP", "shrunken log2 fold change": -0.0182},
      {"sequence": "RRIRFRPPRLPRPRPRPFREPRP", "shrunken log2 fold change": -0.0914},
      {"sequence": "RRIRMRPPRLPRPRPRPNNSPRP", "shrunken log2 fold change": -0.327},
      {"sequence": "RRIRVRPPRLPRPRPRPMTYPRP", "shrunken log2 fold change": -0.494},
      {"sequence": "RRIRGRPPRLPRPRPRPVLMPRP", "shrunken log2 fold change": 0.316},
      {"sequence": "RRIRTRPPRLPRPRPRPMYWPRP", "shrunken log2 fold change": -0.131},
      {"sequence": "RRIRIRPPRLPRPRPRPDWYPRP", "shrunken log2 fold change": -0.842},
      {"sequence": "RRIRARPPRLPRPRPRPVVLPRP", "shrunken log2 fold change": 0.463},
      {"sequence": "RRIRCRPPRLPRPRPRPCCPPRP", "shrunken log2 fold change": -0.316},
      {"sequence": "RRIRIRPPRLPRPRPRPYPAPRP", "shrunken log2 fold change": -0.331},
      {"sequence": "RRIRSRPPRLPRPRPRPFSQPRP", "shrunken log2 fold change": -1.07},
      {"sequence": "RRIRKRPPRLPRPRPRPFEEPRP", "shrunken log2 fold change": 0.148},
      {"sequence": "RRIRDRPPRLPRPRPRPWVCPRP", "shrunken log2 fold change": -0.0108},
      {"sequence": "RRIRSRPPRLPRPRPRPCVNPRP", "shrunken log2 fold change": -0.0338},
      {"sequence": "RRIRIRPPRLPRPRPRPDKFPRP", "shrunken log2 fold change": -0.565},
      {"sequence": "RRIRMRPPRLPRPRPRPGCKPRP", "shrunken log2 fold change": 0.172},
      {"sequence": "RRIRTRPPRLPRPRPRPADSPRP", "shrunken log2 fold change": 0.0603},
      {"sequence": "RRIRHRPPRLPRPRPRPGISPRP", "shrunken log2 fold change": -0.315},
      {"sequence": "RRIRGRPPRLPRPRPRPQCFPRP", "shrunken log2 fold change": 0.352},
      {"sequence": "RRIRHRPPRLPRPRPRPKIYPRP", "shrunken log2 fold change": -0.296},
      {"sequence": "RRIRHRPPRLPRPRPRPSPEPRP", "shrunken log2 fold change": -0.0554},
      {"sequence": "RRIRFRPPRLPRPRPRPMPHPRP", "shrunken log2 fold change": -0.0704},
      {"sequence": "RRIRTRPPRLPRPRPRPIWKPRP", "shrunken log2 fold change": 0.0742},
      {"sequence": "RRIRLRPPRLPRPRPRPGDAPRP", "shrunken log2 fold change": -0.127},
      {"sequence": "RRIRTRPPRLPRPRPRPVSPPRP", "shrunken log2 fold change": -0.194},
      {"sequence": "RRIRGRPPRLPRPRPRPSTGPRP", "shrunken log2 fold change": -0.0729},
      {"sequence": "RRIRKRPPRLPRPRPRPGDNPRP", "shrunken log2 fold change": 0.046},
      {"sequence": "RRIRERPPRLPRPRPRPPLHPRP", "shrunken log2 fold change": -0.0595},
      {"sequence": "RRIRTRPPRLPRPRPRPDCDPRP", "shrunken log2 fold change": 0.209},
      {"sequence": "RRIRQRPPRLPRPRPRPDVHPRP", "shrunken log2 fold change": -0.304},
      {"sequence": "RRIRNRPPRLPRPRPRPIRKPRP", "shrunken log2 fold change": -0.0111},
      {"sequence": "RRIRWRPPRLPRPRPRPAHAPRP", "shrunken log2 fold change": 0.191},
      {"sequence": "RRIRERPPRLPRPRPRPHTHPRP", "shrunken log2 fold change": -1.01},
      {"sequence": "RRIRGRPPRLPRPRPRPTDWPRP", "shrunken log2 fold change": 0.8},
      {"sequence": "RRIRERPPRLPRPRPRPMTEPRP", "shrunken log2 fold change": -0.116},
      {"sequence": "RRIRNRPPRLPRPRPRPNSMPRP", "shrunken log2 fold change": -0.815},
      {"sequence": "RRIRHRPPRLPRPRPRPHICPRP", "shrunken log2 fold change": -0.259},
      {"sequence": "RRIRHRPPRLPRPRPRPEASPRP", "shrunken log2 fold change": 0.0128},
      {"sequence": "RRIRYRPPRLPRPRPRPGRFPRP", "shrunken log2 fold change": -0.0548},
      {"sequence": "RRIRRRPPRLPRPRPRPEIAPRP", "shrunken log2 fold change": 0.84},
      {"sequence": "RRIRERPPRLPRPRPRPFHDPRP", "shrunken log2 fold change": -0.291},
      {"sequence": "RRIRRRPPRLPRPRPRPFLCPRP", "shrunken log2 fold change": 0.219},
      {"sequence": "RRIRFRPPRLPRPRPRPKWQPRP", "shrunken log2 fold change": 0.000886},
      {"sequence": "RRIRNRPPRLPRPRPRPYLFPRP", "shrunken log2 fold change": -0.541},
      {"sequence": "RRIRMRPPRLPRPRPRPIKMPRP", "shrunken log2 fold change": 0.14},
      {"sequence": "RRIRMRPPRLPRPRPRPMGSPRP", "shrunken log2 fold change": -0.0199},
      {"sequence": "RRIRNRPPRLPRPRPRPVSVPRP", "shrunken log2 fold change": -0.143},
      {"sequence": "RRIRFRPPRLPRPRPRPMNEPRP", "shrunken log2 fold change": -0.595},
      {"sequence": "RRIRCRPPRLPRPRPRPCSAPRP", "shrunken log2 fold change": -0.277},
      {"sequence": "RRIRERPPRLPRPRPRPSHLPRP", "shrunken log2 fold change": -0.188},
      {"sequence": "RRIRFRPPRLPRPRPRPHLNPRP", "shrunken log2 fold change": -0.624},
      {"sequence": "RRIRVRPPRLPRPRPRPIMVPRP", "shrunken log2 fold change": -0.219},
      {"sequence": "RRIRERPPRLPRPRPRPQSKPRP", "shrunken log2 fold change": -0.769},
      {"sequence": "RRIRLRPPRLPRPRPRPESFPRP", "shrunken log2 fold change": 0.0256},
      {"sequence": "RRIRDRPPRLPRPRPRPAFDPRP", "shrunken log2 fold change": 0.284},
      {"sequence": "RRIRARPPRLPRPRPRPMTFPRP", "shrunken log2 fold change": -0.191},
      {"sequence": "RRIRIRPPRLPRPRPRPAGFPRP", "shrunken log2 fold change": 0.0153},
      {"sequence": "RRIRRRPPRLPRPRPRPRFCPRP", "shrunken log2 fold change": 0.421},
      {"sequence": "RRIRVRPPRLPRPRPRPVVHPRP", "shrunken log2 fold change": -0.0292},
      {"sequence": "RRIRWRPPRLPRPRPRPNYVPRP", "shrunken log2 fold change": -0.128},
      {"sequence": "RRIRHRPPRLPRPRPRPAFGPRP", "shrunken log2 fold change": 0.105},
      {"sequence": "RRIRLRPPRLPRPRPRPFIPPRP", "shrunken log2 fold change": -0.355},
      {"sequence": "RRIRVRPPRLPRPRPRPPTQPRP", "shrunken log2 fold change": 0.273},
      {"sequence": "RRIRARPPRLPRPRPRPHYYPRP", "shrunken log2 fold change": -0.146},
      {"sequence": "RRIRVRPPRLPRPRPRPDPFPRP", "shrunken log2 fold change": 0.0836},
      {"sequence": "RRIRCRPPRLPRPRPRPKIIPRP", "shrunken log2 fold change": -0.932},
      {"sequence": "RRIRVRPPRLPRPRPRPICKPRP", "shrunken log2 fold change": -0.149},
      {"sequence": "RRIRGRPPRLPRPRPRPMRPPRP", "shrunken log2 fold change": 1.3},
      {"sequence": "RRIRTRPPRLPRPRPRPKNWPRP", "shrunken log2 fold change": 0.183},
      {"sequence": "RRIRSRPPRLPRPRPRPKCRPRP", "shrunken log2 fold change": 0.0128},
      {"sequence": "RRIRGRPPRLPRPRPRPMCTPRP", "shrunken log2 fold change": 2.37},
      {"sequence": "RRIRIRPPRLPRPRPRPPFEPRP", "shrunken log2 fold change": -0.0183}
    ]}
  ]
}
